# B1: myc-tagged human ARMC5 (pcDNA3.1-myc-hARMC5), wild type [human] / FLAG-SREBF1(N), N-terminus of mouse SREBF1, from pcDNA3.1-FLAG-Srebf1(N) in HEK293T [mouse] (parent complex)
# chain 1: MAAAKPTLTDSLSFCLAQLAAAAGEALGGEKDPATNETPLSRALLALRTRHIKAAGGIERFRARGGLRPLLALLRRAAAAGSAPSQAGPGSAPSSAASGASSPAPASGPAPSAVSSSSPTPPVRLRKTLDLALSILADCCTEGACRTEVRRLGGILPLVTILQCMKTDSIQNRTARALGNLAMEPESCGDIHCAGAVPLLVESLTACQDSQCLQSVVRALRNLADSPQHRLALAQQGAVRPLAELLATAPDAALTLALVRALLELSRGCSRACAEQLSLGGGLGPLVSLASHPKRAVREGTILILANLCAQGLIRPALGNAGGVEVLVDELRQRRDPNGASPTSQQPLVRAVCLLCREAINRARLRDAGGLDLLMGLLRDPRASAWHPRIVAALVGFLYDTGALGRLQALGLVPLLAGQLCGEAGEEEEEGREAASWDFPEERTPERAQGGSFRSLRSWLISEGYATGPDDISPDWSPEQCPPEPMEPASPAPTPTSLRAPRTQRTPGRSPAAAIEEPWGREGPALLLLSRFSQAPDPSGALVTGPALYGLLTYVTGAPGPPSPRALRILSRLTCNPACLEAFVRSYGAALLRAWLVLGVAPDDWPAPRARPTLHSRHRELGERLLQNLTVQAESPFGVGALTHLLLSGSPEDRVACALTLPFICRKPSLWRRLLLEQGGLRLLLAALTRPAPHPLFLFFAADSLSCLQDLVSPTVSPAVPQAVPMDLDSPSPCLYEPLLGPAPVPAPDLHFLLDSGLQLPAQRAASATASPFFRALLSGSFAEAQMDLVPLRGLSPGAAWPVLHHLHGCRGCGAALGPVPPPGQPLLGSEAEEALEAAGRFLLPGLEEELEEAVGRIHLGPQGGPESVGEVFRLGRPRLAAHCARWTLGSEQCPRKRGLALVGLVEAAGEEAGPLTEALLAVVMGIELGARVPA
# chain 2: DELAFGEAALEQTLAEMCELDTAVLNDIEDMLQLINNQDSDFPGLFDAPYAGGETGDTGPSSPGANSPESFSSASLASSLEAFLGGPKVTPAPLSPPPSAPAALKMYPSVSPFSPGPGIKEEPVPLTILQPAAPQPSPGTLLPPSFPAPPVQLSPAPVLGYSSLPSGFSGTLPGNTQQPPSSLPLAPAPGVLPTPALHTQVQSLASQQPLPASAAPRTNTVTSQVQQVPVVLQPHFIKADSLLLTAVKTDAGATVKTAGISTLAPGTAVQAGPLQTLVSGGTILATVPLVVDTDKLPIHRLAAGSKALGSAQSRGEKRTAHNAIEKRYRSSINDKIVELKDLVVGTEAKLNKSAVLRKAIDYIRFLQHSNQKLKQENLTLRSAHKSKSLKDLVSACGSGGGTDVSMEGMKPEVVETLTPPPSDAGSPSQSSPLSFGSRASSSGGSDSEPDSP
# Variants of: B1
# Assay: co-immunoprecipitation (anti-FLAG IP) with western blot densitometry; HEK293T cells; n = 3; read off a plot
row,Variant,response [A.U.]
1,chain 1 R315W,~0.12
2,chain 1 L331P,~0.12
3,chain 1 L754P,~0.31

# Next, values leading:
row,response [A.U.],Variant
1,~0.075,chain 1 R362L
2,~0.3,chain 1 R898W
